Key:
[1] = system: translation of firefly luciferase; assay type: biochemical
Protocol: To determine whether or not the conversion of DON into epi-THS through Akr I-III and the conversion of DON into THS through ADH-Lk, as described herein, leads to a decrease in toxicity, two assays were performed. The in vitro TNT® Quick Coupled Transcription/Translation System (Promega) was used to measure how well the metabolites inhibit protein synthesis and the CeIITox™ Green Cytotoxicity Assay (Promega; […].
For the in vitro transcription/translation assay, 40 μl of the TNT T7 quick master mix were mixed with 2 μl firefly luciferase encoding DNA and with 4 μl metabolites to obtain final concentrations from 0.01 μM-150 μM in the reaction. Reactions lacking metabolites were the reference for maximum luminescence output. Reactions were incubated at 30° C. for 90 min to allow for transcription of luciferase gene and subsequent translation. In an opaque (white) 96-well plate (Greiner Bio One) 100 μl Luciferase reagent where mixed with 4 μl of the reactions and immediately placed into a Synergy HT plate reader (Biotek) to read luminescence with a 2 sec and a 10 sec measurement delay. […].

[2] = DON transformation assay with ADH-Lk; assay type: biochemical; settings: for DON / THS [peak area]: 30° C.
Protocol: . All components of the reaction except of isopropanol and NADP+ were mixed on ice and a 0 minutes sample was removed (mix sample 1:1 (v/v) with 100% methanol to stop any reaction). Immediately thereafter, reaction mixtures were transferred to the heating block and the reaction was started by adding NADP+ and IPA. The reaction was allowed to proceed for 22 hours at 30° C. A control reaction with the same set up, but lacking the enzyme was set up in parallel. Samples were removed in regular intervals in order to monitor the progression of the reaction and immediately mixed 1:1 (v/v) with 100% methanol to stop the reaction. They were subsequently analyzed using the HPLC-MS/MS method described in below.
For HPLC-MS/MS analysis, DON and THS were separated on a 150 mm×2.1 mm Phenomenex Kinetex Biphenyl column with a particle size of 2.6 μm. The mobile phase consisted of a mixture of methanol and ultrapure water with 0.1% (v/v) acetic acid. Ions were generated using electro spray ionization (ESI) in negative ionization mode. The quantification is done using a QTrap and/or triple quadrupole mass detector. […].

Molecule	times weaker effect on luminescence output compared to DON [1]	DON ([2]; time 0 h)	DON ([2]; time 3.5 h)	THS [peak area] ([2]; time 3.5 h)	DON ([2]; time 22 h)	THS [peak area] ([2]; time 22 h)	production of THS from DON ([2]; presence of enzyme in the reaction)
8-amino-DON [Akr 8-amino-DON]	5-10 times						
ADH-Lk: artificial amino acid sequence, variant of a wild type alcohol dehydrogenase (protein, ADH-Lk) MTDRLKGKVAIVTGGTHGIGLAIATKFVTEGAKVVITGRRADVGEKAAKSIGGTDVIRFVQHDVSDEAGWGKLFDTTEETFGPVTTLVNNAGIGYRKSVEDTTTEEWRKLLSVNLDGVFFGTRLGIQRMKCKGLGASIINMSSILGQVGDPATGAYSASKGAVRIMSKSAALLCALKDYDVRVNTVHPGPIKTPLMDDMPGAEEMMSQRTKTPMGHIGEPNDIAWVCVYLASDESKFATGAEFVVDGGYTAQ		399.9 µg/L	387.1 µg/L	7.88E+03	296.6 µg/L	1.13E+05	leads to the production of THS from DON

Reference: US20230380451A1, “MEANS AND METHODS TO DETOXIFY MYCOTOXINS” (priority 2020, published 2023)
